Measured values taken from PMC12062419 (2025).

Biological target: T1, human migfilin (residues 1-85) Ser12His (human, UniProt Q8WUP2 1-85, Ser12His)
T1 sequence: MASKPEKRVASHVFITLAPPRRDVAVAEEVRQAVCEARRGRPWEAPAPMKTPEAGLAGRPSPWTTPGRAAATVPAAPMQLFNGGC
Assay: NMR

- Kd: 4.9 µM
B1: GST-tagged human filamin A domain 21 (FLNa21) labelled with 4-trifluoromethyl-L-phenylalanine at position 2274 (domain or fragment)
chain: GGAHKVRAGGPGLERAEAGVPAEFSIWTREAGAGGLAIFVEGPSKAEISFEDRKDGSCGVAYVVQEPGDYEVSVKFNEEHIPDSPFVVPVASP
modifications: 4-trifluoromethyl-L-phenylalanine (tfmF) at position 2274
